Reference: patent publication US20250074988A1 (SHANGHAI HUAOTA BIOPHARMACEUTICAL, published 2025)

T1: Rabbit PD-L1 (rabbit, UniProt G1SUI3 19-238)
T1 sequence: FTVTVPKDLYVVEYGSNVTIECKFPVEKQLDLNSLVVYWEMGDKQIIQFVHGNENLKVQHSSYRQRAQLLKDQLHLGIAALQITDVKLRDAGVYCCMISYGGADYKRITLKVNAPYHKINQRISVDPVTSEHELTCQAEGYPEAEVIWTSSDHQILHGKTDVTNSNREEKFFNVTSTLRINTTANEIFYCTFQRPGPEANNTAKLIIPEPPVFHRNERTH


How the values were obtained:
[1] = biological target: T2, human PD-L1 on CHO-K1-huPD-L1 cells (human, UniProt Q9NZQ7 19-290); test: cell-based or functional assay
T2 sequence (Q9NZQ7 19-290): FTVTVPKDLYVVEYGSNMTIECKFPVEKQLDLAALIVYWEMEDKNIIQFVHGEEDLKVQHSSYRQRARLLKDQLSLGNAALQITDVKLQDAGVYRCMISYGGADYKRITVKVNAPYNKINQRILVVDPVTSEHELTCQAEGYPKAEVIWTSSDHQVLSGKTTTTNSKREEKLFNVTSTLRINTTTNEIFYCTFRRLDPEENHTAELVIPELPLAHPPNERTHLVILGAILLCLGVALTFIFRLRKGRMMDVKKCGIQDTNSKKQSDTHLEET

[2] = biological target: T2, human PD-L1 on CHO-K1-huPD-L1 cells; test: flow cytometry on CHO-K1-huPD-L1 cells; humanized antibody 900760
Protocol: CHO-K1-huPD-L1 cells overexpressing human PD-L1 were plated in a 96-well plate at 2×10⁴/well, and the 3-fold serial gradient dilutions of the samples to be tested were added at 20 μl/well, and co-incubated with the cells at room temperature for 30 min. The cells were washed by centrifugation to remove unbound antibodies, and 20 μl of R-Phycoerythrin AffiniPure Goat Anti-Human IgG, Fcγ Fragment Specific (Item No.: 109-115-098, Jackson ImmunoResearch; diluted with 1% (w/v) BSA-PBS at 1:200) fluorescent secondary antibodies were added to each well, and incubated for 15 min. The cells were then washed twice, resuspended in 100 μl of 1% (w/v) BSA-PBS, and detected for their fluorescence intensity at 585 nm by flow cytometry (BD, FACS Cantoll) under 488 nm excitation.

[3] = biological target: T3, human PD-L1-moFc recombinant protein (human); test: flow cytometry, blocking of PD-L1-moFc binding to CHO-K1-huPD-1 cells
T3 construct: also called free PD-L1
T3 sequence (chain, as listed by the source limits assumed): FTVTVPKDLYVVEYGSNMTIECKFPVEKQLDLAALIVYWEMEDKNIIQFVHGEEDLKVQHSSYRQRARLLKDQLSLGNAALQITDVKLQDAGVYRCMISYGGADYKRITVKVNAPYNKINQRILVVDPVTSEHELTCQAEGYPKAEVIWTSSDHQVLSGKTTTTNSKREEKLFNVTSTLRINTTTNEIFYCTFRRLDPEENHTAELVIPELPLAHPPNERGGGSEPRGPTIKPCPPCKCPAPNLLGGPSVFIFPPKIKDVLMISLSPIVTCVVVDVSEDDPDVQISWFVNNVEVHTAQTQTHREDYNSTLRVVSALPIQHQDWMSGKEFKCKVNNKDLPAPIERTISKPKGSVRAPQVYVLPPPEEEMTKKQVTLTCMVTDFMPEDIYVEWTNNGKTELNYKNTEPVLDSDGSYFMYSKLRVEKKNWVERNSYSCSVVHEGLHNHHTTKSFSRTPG
Protocol: The antibodies to be tested were diluted with 3-fold gradient, added at 20 μL/well into the 96-well plate with the antigen added, mixed well, and incubated at room temperature for 15 min. CHO-K1-huPD-1 cells overexpressing human PD-1 were added at 2×10⁴/well into the 96-well plate pre-incubated with antigen-antibody, mixed well, and incubated at room temperature for 15 min. The mixture was centrifuged at 300 g for 5 min, the supernatant was removed, and the cells were washed twice with FACS buffer. Anti-moFc-Alexa 488 (Item No.: 115-545-071, Jackson) secondary antibodies were diluted at 1:300, added, mixed well, and incubated at room temperature for 15 min. The cells were washed three times and measured on instrument for the fluorescence intensity on their surfaces.

[4] = biological target: T4, recombinant human PD-L1 protein (Item No. 10084-H08H, Sino Biological) (human, UniProt Q9NZQ7 19-238); test: SPR, Biacore 8K, antibody captured as ligand, PD-L1 analyte, 1:1 model
T4 construct: Bought protein; also called huPD-L1; human PD-L1 antigen
T4 sequence (Q9NZQ7 19-238 limits assumed): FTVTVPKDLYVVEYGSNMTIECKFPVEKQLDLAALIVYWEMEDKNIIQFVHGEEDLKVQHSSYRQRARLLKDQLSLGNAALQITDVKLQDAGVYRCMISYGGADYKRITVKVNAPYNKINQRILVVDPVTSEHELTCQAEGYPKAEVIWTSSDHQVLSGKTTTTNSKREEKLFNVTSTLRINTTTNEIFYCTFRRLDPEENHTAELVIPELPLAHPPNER

Cynomolgus PD-L1 = Cynomolgus PD-L1 (cynomolgus); test: as above
Rabbit PD-L1 = biological target: T1, Rabbit PD-L1; test: as above
[5] = biological target: T4, recombinant human PD-L1 protein (Item …); test: SPR, humanization screening
[6] = biological target: T4, recombinant human PD-L1 protein (Item …); test: ELISA, humanization screening

Binder | Kd [5] [nM] | EC50 [6] [µg/mL] | further results
humanized anti-PD-L1 antibody No. 900760 (antibody, V domains shown) VH: QVQLVQSGAEVKKPGASVKVSCKASGYTFTDYYINWVRQAPGQRLEWIGWIYLGSGNAKYSQKFQGRVTITVDTSASTAYMELSSLRSEDTAVYYCARSVGTYWYFDVWGQGTTVTVSS VL: QIQLTQSPSSLSASVGDRVTMTCSASSSVSYMHWYQQKPGKAPKPWIYDTSNVASGFPARFSGSGSGTDYTLTISSMQPEDFATYYCHQRSSYPWTFGQGTKLEIK | – | – | EC50, T cell activation (NFAT-luciferase RLU, Jurkat-NFAT-PD-1-5B8 effector cells with CHO-K1-OS8-PD-L1-8D6 target cells) [1]: 0.416 µg/mL; EC50 [2]: 0.075 µg/mL; IC50 [3]: 2.27 µg/mL; Kd [4]: 0.459 nM; koff [4]: 0.000158 s⁻¹; kon [4]: 345000 M⁻¹ s⁻¹; Kd (Cynomolgus PD-L1): 0.695 nM; koff (Cynomolgus PD-L1): 0.000138 s⁻¹; kon (Cynomolgus PD-L1): 198000 M⁻¹ s⁻¹; Kd (Rabbit PD-L1): 14 nM; koff (Rabbit PD-L1): 0.00235 s⁻¹; kon (Rabbit PD-L1): 167000 M⁻¹ s⁻¹
900245Ab-H2L2 (antibody, human IgG1, kappa, L234A L235A, V domains shown, Humanized; huVH2 + huVL2 on human IgG1 / Ig kappa constants) VH: QIQLVQSGAEVKKPGASVKVSCKASGYTFTDYYINWVRQAPGQRLEWIGWIYLGSGNAKYNEKFKGRATLTVDTSASTAYMELSSLRSEDTAVYYCARCVGTYWYFDVWGQGTTVTVSS VL: DIQLTQSPSSLSASVGDRVTITCSASSSVSYMHWYQQKPGKAPKPWIYDTSNVQSGFPSRFSGSGSGTDYTLTISSLQPEDFATYYCHQRSSYPWTFGQGTKLEIKR | 0.816 | 0.514 | –
900245Ab-H3L3 (antibody, human IgG1, kappa, L234A L235A, V domains shown, Humanized; huVH3 + huVL3 on human IgG1 / Ig kappa constants) VH: QIQLVQSGAEVKKPGASVKVSCKASGYTFTDYYINWVRQAPGQRLEWIGWIYLGSGNAKYSQKFQGRATLTVDTSASTAYMELSSLRSEDTAVYYCARCVGTYWYFDVWGQGTTVTVSS VL: DIQLTQSPSSLSASVGDRVTITCSASSSVSYMHWYQQKPGKAPKLLIYDTSSLQSGVPSRFSGSGSGTDYTLTISSLQPEDFATYYCHQRSSYPWTFGQGTKLEIKR | 10.4 | 8.7 | –
900245Ab-H3L1 (antibody, human IgG1, kappa, L234A L235A, V domains shown, Humanized; huVH3 + huVL1 on human IgG1 / Ig kappa constants) VH: QIQLVQSGAEVKKPGASVKVSCKASGYTFTDYYINWVRQAPGQRLEWIGWIYLGSGNAKYSQKFQGRATLTVDTSASTAYMELSSLRSEDTAVYYCARCVGTYWYFDVWGQGTTVTVSS VL: QIQLTQSPSSLSASVGDRVTMTCSASSSVSYMHWYQQKPGKAPKPWIYDTSNVASGFPARFSGSGSGTDYTLTISSMQPEDFATYYCHQRSSYPWTFGQGTKLEIKR | 0.576 | 0.381 | –
900245Ab-H3L2 (antibody, human IgG1, kappa, L234A L235A, V domains shown, Humanized; huVH3 + huVL2 on human IgG1 / Ig kappa constants) VH: QIQLVQSGAEVKKPGASVKVSCKASGYTFTDYYINWVRQAPGQRLEWIGWIYLGSGNAKYSQKFQGRATLTVDTSASTAYMELSSLRSEDTAVYYCARCVGTYWYFDVWGQGTTVTVSS VL: DIQLTQSPSSLSASVGDRVTITCSASSSVSYMHWYQQKPGKAPKPWIYDTSNVQSGFPSRFSGSGSGTDYTLTISSLQPEDFATYYCHQRSSYPWTFGQGTKLEIKR | 0.764 | 0.787 | –
900245Ab-H4L1 (antibody, human IgG1, kappa, L234A L235A, V domains shown, Humanized; huVH4 + huVL1 on human IgG1 / Ig kappa constants) VH: QVQLVQSGAEVKKPGASVKVSCKASGYTFTDYYINWVRQAPGQRLEWIGWIYLGSGNAKYNEKFKGRVTITVDTSASTAYMELSSLRSEDTAVYYCARSVGTYWYFDVWGQGTTVTVSS VL: QIQLTQSPSSLSASVGDRVTMTCSASSSVSYMHWYQQKPGKAPKPWIYDTSNVASGFPARFSGSGSGTDYTLTISSMQPEDFATYYCHQRSSYPWTFGQGTKLEIKR | 0.726 | 0.589 | –
900245Ab-H5L1 (antibody, human IgG1, kappa, L234A L235A, V domains shown, Humanized; huVH5 + huVL1 on human IgG1 / Ig kappa constants, screening batch from ExpiCHO-s cells; also called CoAD1445) VH: QVQLVQSGAEVKKPGASVKVSCKASGYTFTDYYINWVRQAPGQRLEWIGWIYLGSGNAKYSQKFQGRVTITVDTSASTAYMELSSLRSEDTAVYYCARSVGTYWYFDVWGQGTTVTVSS VL: QIQLTQSPSSLSASVGDRVTMTCSASSSVSYMHWYQQKPGKAPKPWIYDTSNVASGFPARFSGSGSGTDYTLTISSMQPEDFATYYCHQRSSYPWTFGQGTKLEIKR | 0.645 | 0.502 | –
900245Ab-H5L3 (antibody, human IgG1, kappa, L234A L235A, V domains shown, Humanized; huVH5 + huVL3 on human IgG1 / Ig kappa constants) VH: QVQLVQSGAEVKKPGASVKVSCKASGYTFTDYYINWVRQAPGQRLEWIGWIYLGSGNAKYSQKFQGRVTITVDTSASTAYMELSSLRSEDTAVYYCARSVGTYWYFDVWGQGTTVTVSS VL: DIQLTQSPSSLSASVGDRVTITCSASSSVSYMHWYQQKPGKAPKLLIYDTSSLQSGVPSRFSGSGSGTDYTLTISSLQPEDFATYYCHQRSSYPWTFGQGTKLEIKR | 30.9 | ~1410 | –
900245Ab-H5L2 (antibody, human IgG1, kappa, L234A L235A, V domains shown, Humanized; huVH5 + huVL2 on human IgG1 / Ig kappa constants) VH: QVQLVQSGAEVKKPGASVKVSCKASGYTFTDYYINWVRQAPGQRLEWIGWIYLGSGNAKYSQKFQGRVTITVDTSASTAYMELSSLRSEDTAVYYCARSVGTYWYFDVWGQGTTVTVSS VL: DIQLTQSPSSLSASVGDRVTITCSASSSVSYMHWYQQKPGKAPKPWIYDTSNVQSGFPSRFSGSGSGTDYTLTISSLQPEDFATYYCHQRSSYPWTFGQGTKLEIKR | 1.67 | 0.991 | –
900245Ab-H1L1 (antibody, human IgG1, kappa, L234A L235A, V domains shown, Humanized) VH: QIQLVQSGAEVKKPGASVKISCKASGYTFTDYYINWVRQAPGQRLEWIGWIYLGSGNAKYNEKFKGKATLTVDTSASTAYMELSSLRSEDTAVYFCARCVGTYWYFDVWGQGTTVTVSS VL: QIQLTQSPSSLSASVGDRVTMTCSASSSVSYMHWYQQKPGKAPKPWIYDTSNVASGFPARFSGSGSGTDYTLTISSMQPEDFATYYCHQRSSYPWTFGQGTKLEIKR | 0.596 | 0.361 | –
900245Ab-H4L2 (antibody, human IgG1, kappa, L234A L235A, V domains shown, Humanized; huVH4 + huVL2 on human IgG1 / Ig kappa constants) VH: QVQLVQSGAEVKKPGASVKVSCKASGYTFTDYYINWVRQAPGQRLEWIGWIYLGSGNAKYNEKFKGRVTITVDTSASTAYMELSSLRSEDTAVYYCARSVGTYWYFDVWGQGTTVTVSS VL: DIQLTQSPSSLSASVGDRVTITCSASSSVSYMHWYQQKPGKAPKPWIYDTSNVQSGFPSRFSGSGSGTDYTLTISSLQPEDFATYYCHQRSSYPWTFGQGTKLEIKR | 1.97 | 1.31 | –
900245Ab-H2L1 (antibody, human IgG1, kappa, L234A L235A, V domains shown, Humanized; huVH2 + huVL1 on human IgG1 / Ig kappa constants) VH: QIQLVQSGAEVKKPGASVKVSCKASGYTFTDYYINWVRQAPGQRLEWIGWIYLGSGNAKYNEKFKGRATLTVDTSASTAYMELSSLRSEDTAVYYCARCVGTYWYFDVWGQGTTVTVSS VL: QIQLTQSPSSLSASVGDRVTMTCSASSSVSYMHWYQQKPGKAPKPWIYDTSNVASGFPARFSGSGSGTDYTLTISSMQPEDFATYYCHQRSSYPWTFGQGTKLEIKR | 0.639 | 0.385 | –
900245Ab-H4L3 (antibody, human IgG1, kappa, L234A L235A, V domains shown, Humanized; huVH4 + huVL3 on human IgG1 / Ig kappa constants) VH: QVQLVQSGAEVKKPGASVKVSCKASGYTFTDYYINWVRQAPGQRLEWIGWIYLGSGNAKYNEKFKGRVTITVDTSASTAYMELSSLRSEDTAVYYCARSVGTYWYFDVWGQGTTVTVSS VL: DIQLTQSPSSLSASVGDRVTITCSASSSVSYMHWYQQKPGKAPKLLIYDTSSLQSGVPSRFSGSGSGTDYTLTISSLQPEDFATYYCHQRSSYPWTFGQGTKLEIKR | 43.7 | ~1520 | –
